Test results taken from PMC12405487.

Key:
His72 = His72 (UniProt position 72, HYLFKHKNHPR); assay: NMR; conditions: 278 K (~5 °C); 150 mM NaCl plus 50 mM sodium phosphate; 50 mM NaH2PO4/Na2HPO4, 150 mM NaCl. The pH was set by dialysis into buffer of the adjusted pH, not by direct acid addition.; Isolated (furin-free) folded prodomain, 0.2 mM
His75 = His75 (UniProt position 75, FKHKNHPRRSR); assay: NMR; conditions: 278 K (~5 °C); 150 mM NaCl plus 50 mM sodium phosphate; 50 mM NaH2PO4/Na2HPO4, 150 mM NaCl. The pH was set by dialysis into buffer of the adjusted pH, not by direct acid addition.; Isolated (furin-free) folded prodomain, 0.2 mM
His85 = His85 (UniProt position 85, RRSAFHITKRL); assay: NMR; conditions: 278 K (~5 °C); 150 mM NaCl plus 50 mM sodium phosphate; 50 mM NaH2PO4/Na2HPO4, 150 mM NaCl. The pH was set by dialysis into buffer of the adjusted pH, not by direct acid addition.; Isolated (furin-free) folded prodomain, 0.2 mM
furin (human) [1] = biological target: furin (human) (UniProt P09958); assay: enzyme inhibition kinetics (fluorogenic substrate); condition 3: 50 mM Hepes/NaOH pH 7.4, 300 mM NaCl, 2 mM CaCl2, 0.2% Triton X-100, 25 °C; substrate Ac-RR(Tle)KR-AMC; triplicates
furin (human) [2] = biological target: furin (human) (UniProt P09958); assay: enzyme inhibition kinetics (fluorogenic substrate); condition 2: 50 mM Mes/NaOH pH 6.0, 300 mM NaCl, 2 mM CaCl2, 0.2% Triton X-100, 25 °C; substrate Ac-RR(Tle)KR-AMC; triplicates
[3] = biological target: furin (soluble, mature, active) (UniProt P09958); assay: NMR, 2D 1H-15N HMBC of histidine side chains as a function of pH (600 MHz); conditions: pH 6.3-7.4; 278 K (~5 °C); 150 mM NaCl; 50 mM NaH2PO4/Na2HPO4 at each adjusted pH
Sequence of furin (soluble, mature, active) (P09958 whole entry): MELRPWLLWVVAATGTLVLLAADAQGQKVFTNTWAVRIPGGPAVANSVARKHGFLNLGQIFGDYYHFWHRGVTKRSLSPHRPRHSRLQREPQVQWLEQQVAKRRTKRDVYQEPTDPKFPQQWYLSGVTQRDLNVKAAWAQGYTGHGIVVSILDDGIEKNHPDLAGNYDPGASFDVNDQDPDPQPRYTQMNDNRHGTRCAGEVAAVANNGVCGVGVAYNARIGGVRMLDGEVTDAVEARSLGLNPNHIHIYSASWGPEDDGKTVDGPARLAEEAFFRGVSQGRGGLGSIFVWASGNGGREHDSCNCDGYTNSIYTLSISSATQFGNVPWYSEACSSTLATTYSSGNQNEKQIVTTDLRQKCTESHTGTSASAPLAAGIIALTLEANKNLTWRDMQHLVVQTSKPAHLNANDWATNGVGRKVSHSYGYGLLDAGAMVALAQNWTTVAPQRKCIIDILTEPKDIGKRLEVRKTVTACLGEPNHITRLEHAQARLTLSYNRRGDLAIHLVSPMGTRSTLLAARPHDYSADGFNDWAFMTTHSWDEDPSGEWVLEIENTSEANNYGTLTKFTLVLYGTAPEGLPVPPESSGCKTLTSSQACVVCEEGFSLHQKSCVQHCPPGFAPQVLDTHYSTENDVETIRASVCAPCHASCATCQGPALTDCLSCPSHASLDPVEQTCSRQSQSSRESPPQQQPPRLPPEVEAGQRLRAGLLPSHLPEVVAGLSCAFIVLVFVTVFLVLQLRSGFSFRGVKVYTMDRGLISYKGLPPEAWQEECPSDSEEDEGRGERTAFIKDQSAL

Proprotein convertase 1/3 (PC1/3, neuroendocrine convertase 1) prodomain, wild type (Homo sapiens)
pKa (His72): 4.82 | pKa (His75): 5.03 | pKa (His85): 5.60

PC1/3-prodomain mutant M5 ((77)R-K-S-A-R) (from UniProt P29120 28-110) (domain or fragment)
Ki (furin (human) [1]): 0.139 nM

PC1/3-prodomain mutant M2 ((77)A-R-S-A-A) (from UniProt P29120 28-110) (domain or fragment)
Ki (furin (human) [2]): 0.88 nM | Ki (furin (human) [1]): 0.73 nM

PC1/3-prodomain mutant M1 (R78A) (from UniProt P29120 28-110) (domain or fragment)
Ki (furin (human) [2]): 2.2 nM | Ki (furin (human) [1]): 0.56 nM

PC1/3-prodomain, wild type (15N-labelled for NMR)
pKa, His72 of the PC1/3-prodomain (WT) [3]: 4.82 pH units | pKa, His75 of the PC1/3-prodomain (WT) [3]: 5.03 pH units | pKa, His85 of the PC1/3-prodomain (WT) [3]: 5.6 pH units

B1: PC1/3-prodomain combination mutant M10 (M5 with His72Leu) (domain or fragment)
chain: GKRQFVNEWAAEIPGGPEAASAIAEELGYDLLGQIGSLENHYLFKLKNHPRKSARSAFHITKRLSDDDRVIWAEQQYEKERSKR
Ki (furin (human) [2]): 0.14 nM | Ki (furin (human) [1]): 0.101 nM
